Common to all, as to assay: SPR (ProteOn), DARPin captured by anti-RGS-His antibody, albumin injected
The target of one assay is T1, human serum albumin (human, UniProt P02768 25-609).
T1 construct: also called HSA
Here is the method: (§1) DARPins with binding specificity for xSA were immobilized in a flow cell via their His-tag to coated α-RGS-His antibody (Qiagen, cat. no. 34650), and the interaction of human, cynomolgus monkey (cyno), mouse, rat, rabbit and dog serum albumin with the immobilized DARPins were analyzed.
(§2) SPR was measured using a ProteOn instrument (BioRad) and measurement was performed according standard procedures known to the person skilled in the art. The running buffer was PBS, pH 7.4, containing 0.01% Tween 20®. Anti-RGS-His antibody was covalently immobilized on a GLC chip (BioRad) to a level of about 2000 resonance units (RU). Immobilization of DARPins on the antibody coated chip was then performed by injecting 150 μl of 1 μM DARPin solution in 300 s (flow rate=30 μl/min). The interaction with serum albumin of the different species was then measured by injecting in 60 sec a volume of 100 μl running buffer (PBS containing 0.01% Tween®) containing a distinct serum albumin at a concentration of 400, 200, 100, 50 nM (on-rate measurement), followed by a running buffer flow for 10 to 30 minutes (flow rate=100 μl/min) (off-rate measurement). The signals (i.e. resonance unit (RU) values) of an uncoated reference cell and a reference injection (i.e. injection of running buffer only) were subtracted from the RU traces obtained after injection of the serum albumins (double-referencing). From the SRP traces obtained from the on-rate and off-rate measurements the on- and off-rate of the corresponding DARPin serum albumin interaction can be determined.
(§3) While human and cynomolgus monkey serum albumin are bound by all DARPins analyzed, rabbit, mouse, rat and dog serum albumin is only bound by a subset of these DARPins.

For another assay, the target named is dog serum albumin (dog, UniProt P49822 25-608). On the procedure: as §1, §2, §3
The target in the next assay is rat serum albumin (rat, UniProt P02770 25-608). Here is the method: as §1, §2, §3
The next assay has as its target rabbit serum albumin (rabbit, UniProt P49065 25-608). Here is the method:
as §1, §2, §3

Assay [1] addresses T2, cynomolgus monkey serum albumin (cynomolgus monkey (macaca fascicularis), UniProt A2V9Z4 25-608).
T2 construct: also called CSA
Here is the method: as §1, §2, §3

For a further assay, the target named is T3, mouse serum albumin (mouse, UniProt P07724 25-608).
T3 construct: also called MSA
Here is the method:
as §1, §2, §3

From US20160250341A1 (Molecular Partners, published 2016) come the findings set out here.

T2 sequence (A2V9Z4 25-608 limits assumed): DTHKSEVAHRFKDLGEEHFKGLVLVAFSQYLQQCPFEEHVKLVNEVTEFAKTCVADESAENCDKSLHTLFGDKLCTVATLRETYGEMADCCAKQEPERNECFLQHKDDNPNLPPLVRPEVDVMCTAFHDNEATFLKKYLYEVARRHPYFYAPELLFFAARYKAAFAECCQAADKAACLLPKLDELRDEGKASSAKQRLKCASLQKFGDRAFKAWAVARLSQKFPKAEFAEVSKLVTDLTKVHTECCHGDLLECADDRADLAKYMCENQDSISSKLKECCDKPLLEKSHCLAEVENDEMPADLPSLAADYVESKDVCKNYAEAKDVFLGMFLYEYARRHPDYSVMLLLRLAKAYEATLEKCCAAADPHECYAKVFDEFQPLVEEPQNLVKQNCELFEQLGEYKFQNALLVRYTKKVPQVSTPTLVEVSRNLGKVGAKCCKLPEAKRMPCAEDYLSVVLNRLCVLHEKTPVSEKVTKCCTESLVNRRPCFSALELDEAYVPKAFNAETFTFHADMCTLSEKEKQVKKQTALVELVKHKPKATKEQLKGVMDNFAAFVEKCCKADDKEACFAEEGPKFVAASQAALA
Sequence of dog serum albumin (P49822 25-608 limits assumed): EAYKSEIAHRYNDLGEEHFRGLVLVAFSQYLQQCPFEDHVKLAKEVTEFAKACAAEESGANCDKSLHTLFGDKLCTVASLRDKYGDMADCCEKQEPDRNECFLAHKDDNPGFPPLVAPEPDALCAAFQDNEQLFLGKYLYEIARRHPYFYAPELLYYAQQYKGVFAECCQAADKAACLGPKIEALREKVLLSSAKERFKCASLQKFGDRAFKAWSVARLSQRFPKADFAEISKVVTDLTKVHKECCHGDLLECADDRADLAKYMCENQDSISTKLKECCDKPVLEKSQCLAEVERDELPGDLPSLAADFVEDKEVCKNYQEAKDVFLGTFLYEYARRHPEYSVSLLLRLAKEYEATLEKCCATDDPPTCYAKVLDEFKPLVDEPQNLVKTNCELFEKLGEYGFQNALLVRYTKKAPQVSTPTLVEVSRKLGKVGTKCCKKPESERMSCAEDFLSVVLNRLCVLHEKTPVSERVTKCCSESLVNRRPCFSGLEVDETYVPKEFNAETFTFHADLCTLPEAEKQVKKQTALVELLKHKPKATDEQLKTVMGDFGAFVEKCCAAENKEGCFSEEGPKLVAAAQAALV
T1 sequence (P02768 25-609 limits assumed): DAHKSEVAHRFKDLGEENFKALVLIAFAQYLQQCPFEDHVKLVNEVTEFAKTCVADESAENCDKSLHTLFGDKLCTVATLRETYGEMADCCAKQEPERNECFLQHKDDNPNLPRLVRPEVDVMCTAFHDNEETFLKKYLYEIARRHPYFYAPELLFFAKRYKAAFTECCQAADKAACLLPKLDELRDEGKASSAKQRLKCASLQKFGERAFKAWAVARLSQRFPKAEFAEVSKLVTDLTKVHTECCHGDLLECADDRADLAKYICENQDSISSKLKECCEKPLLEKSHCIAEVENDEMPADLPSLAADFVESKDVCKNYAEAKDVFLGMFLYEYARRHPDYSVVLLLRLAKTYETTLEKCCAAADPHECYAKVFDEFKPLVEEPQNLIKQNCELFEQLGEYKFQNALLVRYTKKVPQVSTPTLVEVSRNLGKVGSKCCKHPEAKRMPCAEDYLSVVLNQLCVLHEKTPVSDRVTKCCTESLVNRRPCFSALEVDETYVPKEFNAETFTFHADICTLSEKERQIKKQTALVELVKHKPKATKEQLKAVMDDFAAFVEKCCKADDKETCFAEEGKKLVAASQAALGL
Sequence of rat serum albumin (P02770 25-608 limits assumed): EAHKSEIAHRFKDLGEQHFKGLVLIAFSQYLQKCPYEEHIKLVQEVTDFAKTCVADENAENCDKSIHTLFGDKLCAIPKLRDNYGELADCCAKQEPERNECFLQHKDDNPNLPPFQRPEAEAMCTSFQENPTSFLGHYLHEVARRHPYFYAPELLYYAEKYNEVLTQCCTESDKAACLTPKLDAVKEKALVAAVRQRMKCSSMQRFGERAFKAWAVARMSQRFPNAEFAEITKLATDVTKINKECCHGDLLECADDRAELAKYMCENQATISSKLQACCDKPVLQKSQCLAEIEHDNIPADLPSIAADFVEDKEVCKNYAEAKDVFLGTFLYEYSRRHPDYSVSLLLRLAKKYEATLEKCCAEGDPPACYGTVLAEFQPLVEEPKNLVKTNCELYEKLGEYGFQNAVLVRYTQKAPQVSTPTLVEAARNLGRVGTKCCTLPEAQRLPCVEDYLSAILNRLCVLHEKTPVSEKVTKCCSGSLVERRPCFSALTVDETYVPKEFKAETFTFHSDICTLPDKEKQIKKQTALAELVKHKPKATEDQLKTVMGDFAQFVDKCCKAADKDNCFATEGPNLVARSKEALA
Sequence of rabbit serum albumin (P49065 25-608 limits assumed): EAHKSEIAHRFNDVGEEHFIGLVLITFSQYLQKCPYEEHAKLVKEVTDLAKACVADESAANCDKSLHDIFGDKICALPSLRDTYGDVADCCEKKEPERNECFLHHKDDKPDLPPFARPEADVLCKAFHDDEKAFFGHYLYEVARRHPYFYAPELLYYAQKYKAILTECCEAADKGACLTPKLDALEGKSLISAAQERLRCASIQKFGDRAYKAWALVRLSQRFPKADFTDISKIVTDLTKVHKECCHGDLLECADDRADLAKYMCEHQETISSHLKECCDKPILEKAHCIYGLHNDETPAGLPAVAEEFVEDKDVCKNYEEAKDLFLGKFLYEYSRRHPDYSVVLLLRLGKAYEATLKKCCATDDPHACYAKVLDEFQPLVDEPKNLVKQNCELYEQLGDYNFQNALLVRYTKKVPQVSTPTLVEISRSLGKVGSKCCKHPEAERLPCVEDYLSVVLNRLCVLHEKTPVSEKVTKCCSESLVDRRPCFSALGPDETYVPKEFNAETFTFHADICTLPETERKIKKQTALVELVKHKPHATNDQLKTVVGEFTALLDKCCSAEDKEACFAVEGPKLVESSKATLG

B1: DARPin #20 (designed binder)
chain: MRGSHHHHHHGSDLDKKLLEAARAGQDDEVRILMANGADVNAKDYFSHTPLHLAARNGHLKIVEVLLKAGADVNAKDFAGKTPLHLAANDGHLEIVEVLLKHGADVNAQDIFGKTPADIAADAGHEDIAEVLQKLN
For orientation: Kd means a measure of binding affinity in units of concentration. For B1, the dissociation constant Kd with human serum albumin was 27 nM; in the assay with dog serum albumin, 185 nM; with rat serum albumin it was 242 nM; in assay [1], 110 nM; in the assay with mouse serum albumin, 124 nM. In the assay with rabbit serum albumin, the binding result is on record as “no binding (tested: up to 400 nM)”.

B2: DARPin #43 (designed binder)
chain: MRGSHHHHHHGSDLGKKLLEAARAGQDDEVRILLKAGADVNAKDYFSHTPLHLAARNGHLKIVEVLLKAGADVNAKDFAGKTPLHLAANDGHLEIVEVLLKHGADVNAQDIFGKTPADIAADAGHEDIAEVLQKLN
In the assay with human serum albumin, B2 returned a Kd of 30 nM.

B3: DARPin #47 (designed binder)
chain: MRGSHHHHHHGSDLDKKLLEAARAGQDDEVRILLKAGADVNAKDYFSHTPLHLAARNGHLKIVEVLLKAGADVNAKDFAGKTPLHLAANDGHLEIVEVLLKAGADVNAQDIFGKTPADIAADAGHEDIAEVLQKLN
B3 registered a Kd with human serum albumin of 96 nM.

B4: DARPin #46 (designed binder)
chain: MRGSHHHHHHGSDLGKKLLEAARAGQDDEVRELLKAGADVNAKDYFSHTPLHLAARNGHLKIVEVLLKAGADVNAKDFAGKTPLHLAANDGHLEIVEVLLKAGADVNAQDIFGKTPADIAADAGHEDIAEVLQKLN
For the molecule B4, the equilibrium dissociation constant (Kd) with human serum albumin amounted to 43 nM.

B5: DARPin #48 (designed binder)
chain: MRGSHHHHHHGSDLDKKLLEAARAGQDDEVRELLKAGADVNAKDYFSHTPLHLAARNGHLKIVEVLLKAGADVNAKDFAGKTPLHLAANDGHLEIVEVLLKAGADVNAQDIFGKTPADIAADAGHEDIAEVLQKLN
B5 displayed a dissociation constant (Kd) in the assay with human serum albumin of 68 nM.

B6: DARPin #21 (designed binder)
chain: MRGSHHHHHHGSDLDKKLLEAARAGQDDEVRILMANGADVNAKDYFSHTPLHLAARNGHLEIVEVLLKAGADVNAKDFAGKTPLHLAANDGHLEIVEVLLKHGADVNAQDIFGKTPADIAADAGHEDIAEVLQKLN
For B6, the dissociation constant (Kd) came to 26 nM with human serum albumin; 180 nM in the assay with dog serum albumin; 266 nM with rat serum albumin; 110 nM in assay [1]; 142 nM with mouse serum albumin. For the same molecule, in the assay with rabbit serum albumin, the binding result is listed as “no binding (tested: up to 400 nM)”.

B7: DARPin #45 (designed binder)
chain: MRGSHHHHHHGSDLGKKLLEAARAGQDDEVRILLKAGADVNAKDYFSHTPLHLAARNGHLKIVEVLLKAGADVNAKDFAGKTPLHLAANDGHLEIVEVLLKAGADVNAQDIFGKTPADIAADAGHEDIAEVLQKLN
Turning to B7, the affinity with human serum albumin, expressed as Kd, was 35 nM.

B8: DARPin #19 (designed binder)
chain: MRGSHHHHHHGSDLGKKLLEAARAGQDDEVRILMANGADVNAKDYFSHTPLHLAARNGHLKIVEVLLKAGADVNAKDFAGKTPLHLAANDGHLEIVEVLLKHGADVNAQDIFGKTPADIAADAGHEDIAEVLQKLN
On to B8, for which the equilibrium dissociation constant (Kd) with human serum albumin was found to be 14 nM; with dog serum albumin it was 77 nM; with rat serum albumin, 91 nM; in assay [1] it was 63 nM; with mouse serum albumin it was 56 nM. In addition, the binding result with rabbit serum albumin is listed as “no binding (tested: up to 400 nM)”.

B9: DARPin #44 (designed binder)
chain: MRGSHHHHHHGSDLGKKLLEAARAGQDDEVRELLKAGADVNAKDYFSHTPLHLAARNGHLKIVEVLLKAGADVNAKDFAGKTPLHLAANDGHLEIVEVLLKHGADVNAQDIFGKTPADIAADAGHEDIAEVLQKLN
For the molecule B9, the equilibrium dissociation constant (Kd) in the assay with human serum albumin worked out at 39 nM.

B10: DARPin #22 (designed binder)
chain: MRGSHHHHHHGSDLGKKLLEAARAGQDDEVRILMANGADVNAKDYFSHTPLHLAARNGHLEIVEVLLKAGADVNAKDFAGKTPLHLAANDGHLEIVEVLLKHGADVNAQDIFGKTPADIAADAGHEDIAEVLQKLN
As to B10, the Kd stood at 13 nM with human serum albumin; 81 nM in the assay with dog serum albumin; 109 nM with rat serum albumin; 74 nM in assay [1]; 68 nM in the assay with mouse serum albumin. Also, the binding result in the assay with rabbit serum albumin was “no binding (tested: up to 400 nM)”.

B11: DARPin #29 (designed binder)
chain: MRGSHHHHHHGSDLDKKLLEAARAGQDDEVRILMANGADVNAKDERGTTPLHLAAVYGHLEIVEVLLKAGADVNAKNETGYTPLHLADSSGHLEIVEVLLKHGADVNAQDKSGKTPADLAADAGHEDIAEVLQKLN
Take B11: the figures for the Kd (with human serum albumin; with rabbit serum albumin; in assay [1]) were 15 nM, 17 nM and 7 nM, respectively. In addition, the binding result in the assay with dog serum albumin, with rat serum albumin and with mouse serum albumin was “no binding (tested: up to 400 nM)” each time.

B12: DARPin #28 (designed binder)
chain: MRGSHHHHHHGSDLDKKLLEAARAGQDDEVRILMANGADVNAKDERGTTPLHLAAVYGHLEIVEVLLKAGADVNAKNETGYTPLHLADSSGHLEIVEVLLKHSADVNAQDKSGKTPADLAADAGHEDIAEVLQKLN
Turning to B12, the dissociation constant Kd came out at 6 nM in the assay with human serum albumin, 9 nM in the assay with rabbit serum albumin and 3 nM in assay [1]. The binding result with dog serum albumin, with rat serum albumin and in the assay with mouse serum albumin was “no binding (tested: up to 400 nM)” in each case.

B13: DARPin #27 (designed binder)
chain: MRGSHHHHHHGSDLDKKLLEAARAGQDDEVRILMANGADVNAKDERGTTPLHLAAVYGHLEIVEVLLKAGADVNAKNETGYTPLHLADSSGHLEIVEVLLKAGADVNAQDKSGKTPADLAADAGHEDIAEVLQKLN
For the molecule B13, the Kd with human serum albumin was 11 nM; in the assay with rabbit serum albumin it was 19 nM; in assay [1] it was 6 nM. Besides, the binding result with dog serum albumin, with rat serum albumin and with mouse serum albumin was “no binding (tested: up to 400 nM)” in each case.

B14: DARPin #30 (designed binder)
chain: MRGSHHHHHHGSDLDKKLLEAARAGQDDEVRILMANGADVNAKDERGTTPLHLAAVYGHLEIVEVLLKAGADVNAKNETGYTPLHLADSSGHLEIVEVLLKASADVNAQDKSGKTPADLAADAGHEDIAEVLQKLN
Turning to B14, the dissociation constant (Kd) worked out at 7 nM with human serum albumin, 8 nM with rabbit serum albumin and 4 nM in assay [1]. Also, the binding result in the assay with dog serum albumin, in the assay with rat serum albumin and in the assay with mouse serum albumin was “no binding (tested: up to 400 nM)” throughout.
